Among the data in article PMC6067968 are stoichiometry N values, retold here.

Assay in all cases: cross-linking
The target in assay [1] is Recombinant full-length human apolipoprotein A-I L159R (Finnish variant) (human).
The target of assay [2] is Recombinant full-length human apolipoprotein A-I L170P (human).
The target of assay [3] is Recombinant full-length human apolipoprotein A-I F71Y (human).

As to “Recombinant full-length human apolipoprotein A-I L159R (Finnish variant) (natural protein)”, the stoichiometry N (as a rule, a count of units in the complex or per binding partner) in assay [1] worked out at 2. Turning to “Recombinant full-length human apolipoprotein A-I L170P (natural protein)”, the stoichiometry N in assay [2] came to 2. “Recombinant full-length human apolipoprotein A-I F71Y (natural protein)”: the stoichiometry N in assay [3] was 2.
